System: MS2 coat protein
Assay: apparent KD of MS2 coat protein; designed switch direction (-1 OFF switch, 1 ON switch): -1; higher = weaker reporter binding
Method in brief: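 Transcription of designed RNA switches on Illumina chips was done by stalled E. coli RNA polymerase. SNAP-549-labelled MS2 coat protein was then titrated in doubling steps from 0.7 or 1.5 nM to 3 µM, with steps of 0.8–1.5 h at the lowest and 10–20 min at the highest concentration. The per-design median over clusters of curve-fitted normalised fluorescence is reported as apparent KD.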

[1] = Eterna round: R95, input ligand: FMN 200 uM
[2] = Eterna round: R95, input ligand: microRNA oligo, concentration not stated
[3] = Eterna round: R95, input ligand: none
[4] = input ligand: microRNA oligo, concentration not stated

| Sequence | apparent KD of MS2 coat protein [1] | apparent KD of MS2 coat protein [2] | apparent KD of MS2 coat protein [3] | apparent KD of MS2 coat protein (input ligand: FMN 200 uM) | apparent KD of MS2 coat protein (input ligand: none) | apparent KD of MS2 coat protein [4] |
| --- | --- | --- | --- | --- | --- | --- |
| GGUUGGCGAGGAUAUACAUGAGGAUCACCCAUGUGAGAGAAAAAAGUGAGGAAGCAAAGUAGAAGGCGCUGACG [salish99_ex3_r3_034] (puzzle: Exclusion 3) | 117 nM | 42.8 nM | 77.8 nM | – | – | – |
| CCUCAGUAAGGAUAUCAGCUUAUGGAGGUGGUAAUGAGAGCUGAGAAGGUACAUGAGGAUCACCCAUGUUAGUU [JL Zatite mod 1] (puzzle: Exclusion 4) | – | 46.2 nM | – | – | – | – |
| GAUCAUGCAGGAUAUACAUGGAUCAUGAAAACAUGGAUUUCACAUGAGGAUCACCCAUGUAGAAGGGCAUGAUC [Omei Ex2 A10] (Eterna round: R97, puzzle: Exclusion 2) | – | – | – | 47.5 nM | 141 nM | – |
| UAGUGGCAAGGAUAUACAGUGGAGAGGAUUGCAAGAGGUGGACAUGAGGAUCACCCAUGUAGAAGGUGCAGAGA [JR_Exclu2_Sub023] (puzzle: Exclusion 2) | – | 203 nM | – | – | – | – |
| CCUUGGUGAGGAUAUUGAAAAUCUGUCAUAUGCCGACAACUCAAGAAGGUACAUGAGGAUCACCCAUGUUGGGC [Eternabot (Original) Solution 18] (Eterna round: R97, puzzle: Exclusion 4) | – | – | – | 107 nM | 102 nM | – |
| UGCAGACGAGGAUAUAAAUGAUAUAACAUGAGGAUCACCCAUGUACGAUCGAAUGAUCGUUUAGAAGGCGUCUGCA [E5/11-A2] (Eterna round: R97, puzzle: Exclusion 5) | – | – | – | 18.5 nM | 17.4 nM | – |
| UUUAGUUCAGGAUAUGAUGAAUUAUACAUGAGGAUCACCCAUGUAGAUCCUGAAUUAACAUCAGAAGGGAACAUUU [JL-ex5-4.46 Brourd mod] (Eterna round: R97, puzzle: Exclusion 5) | – | – | – | 23 nM | 16.4 nM | – |
| CAUUGUGUUGAGGAUAUGCGCCGGCUCGCUGGCGCAGAAGGCGGCACAUGAGGAUCACCCAUGUCAGUUCGCGA [salish99_ex6_r004_416] (Eterna round: R97, puzzle: Exclusion 6) | – | – | – | 452 nM | 38 nM | – |
| GAUAUAGAGCAGGAUAUCUUAGAUAUGUAAUAAAGAGAAGGGCUCACAUGAGGAUCACCCAUGUGGUCCUAGAU [JL Dibiri mod 13] (puzzle: Exclusion 6) | – | 20.7 nM | – | – | – | – |
| GAGUUAGCGUGUGGAAUAUACAUGAGGAUCACCCAUGUUAGCUUAUAUAUUGCUCGUCUUAUAACAACAAUUAACUG [Mod JX-Electric-eye3] (Eterna round: R97, puzzle: Sensor, turn-off variant 1) | – | – | – | 138 nM | 143 nM | – |
| ACAUGAGGAUCACCCAUGUGAAAAGAAUGGCUGACACAGAGAUAGGAUAUAUGUGCAUAUCUAACAUAGAAGGGUCAUGACUGG [Deportation 79 - Jieux - Exclusion NG 3] (Eterna round: R96, puzzle: Exclusion NG 3) | – | – | – | 28.6 nM | 33.1 nM | 21.6 nM |
| AAAUUGUGAGGAUAUUCGAUGAACACGGAGACGUGUUUAUCGGAGAAGGCACAUGAGGAUCACCCAUGUUCCUU [Mat - Exclusion 4 - JL Mod - D24] (Eterna round: R97, puzzle: Exclusion 4) | – | – | – | 80.4 nM | 16.3 nM | – |
| GCAUUGAGUGUGAGGAUAUGCUGGUCCUAAGAUCAGCAGAAGGCACAUGAGGAUCACCCAUGUGAAAACAAUGC [Mat - Exclusion 4 - JL Mod - D65] (puzzle: Brourd's mod of Exclusion 4) | 102 nM | 15.2 nM | 17.4 nM | – | – | – |
| AAACCGCAAGGAUAUUGUGGCGCUGACAUGAGGAUCACCCAUGUGGUGCUAGUCCCGCUGCGAGAAGGUGUGUAAA [Enesedrave] (puzzle: Exclusion 5) | – | 12.3 nM | – | – | – | – |
| GACCAGGCAGGAUAUACAUGAGGAUCACCCAUGUGUCUGCGUUGGGCACGUGAACACGGUAGAAGGGCCUUGAC [ChP 13.04.2015 #15] (puzzle: Exclusion 3) | – | 12.8 nM | – | – | – | – |
| CCAUCGUGUGUGAGGAUAUGCUGGUCCUUGGAUCAGCAGAAGGCACAUGAGGAUCACCCAUGUGAAUACGAUGG [Mat - Exclusion 4 - JL Mod - D87] (puzzle: Brourd's mod of Exclusion 4) | – | 14.9 nM | – | – | – | – |
| AAAUACAAGCAAAGAUCUUACAUGAGGAUCACCCAUGUGUUCGUCUUAUAAAGUACUAUCACGAAAGUGAUAGUACA [Sensor 3, v1 - 32] (puzzle: Sensor v3, turn-off variant 1) | 14 nM | 89.7 nM | 15.4 nM | – | – | – |

| Sequence | apparent KD of MS2 coat protein [1] | apparent KD of MS2 coat protein [2] | apparent KD of MS2 coat protein [3] | apparent KD of MS2 coat protein (input ligand: FMN 200 uM) | apparent KD of MS2 coat protein (input ligand: none) | apparent KD of MS2 coat protein [4] |
| --- | --- | --- | --- | --- | --- | --- |
| GGUUUGCGGCAGGAUAUCCAUCCGCGGUGUGGUGGAGAAGGGCUGACAUGAGGAUCACCCAUGUGCGUCCUGGU [salish99_ex6_r4_021] (Eterna round: R97, puzzle: Exclusion 6) | – | – | – | 36.3 nM | 21.8 nM | – |
| AAAAAGAGAGGAUAUACAACAAAACAAAACAAAACAAACACACAUGAGGAUCACCCAUGUAGAAGGCUCGAAAA [Exclusion 2 #2] (puzzle: Exclusion 2) | 25.1 nM | 16.5 nM | 19.3 nM | – | – | – |
| CAUGAUUGGGAAGGAUAUUGACCUAGUUAGCGCCGAGAAGGUCCCUGUCACAUGAGGAUCACCCAUGUGAAUCUGGUGUUCGAG [Ex NG1 #94] (Eterna round: R96, puzzle: Exclusion NG 1) | – | – | – | 36.7 nM | 19.7 nM | 17.9 nM |
| AAUUCGCAAGCGAGAUCCCACAUGAGGAUCACCCAUGUGCUCGUCUUAUAAGGUACUGUGACGAAAGUCACGGUACC [Mat - Sensor, turn-off var - Eli Mod - D85] (Eterna round: R97, puzzle: Sensor, turn-off variant 1) | – | – | – | 16.2 nM | 17.1 nM | – |
| AAACGGCAGGGAGGAUAUGCUUGCCUGGGUCGUCUUCAAACAUGAGGAUCACCCAUGUAGUCGACGCAGAAGGCCCUCAAAGCC [JL ViennaUCT Ontiis mod 4] (Eterna round: R96, puzzle: Exclusion NG 2) | – | – | – | 42.9 nM | 16.7 nM | 8.85 nM |
| AUAAGUGAUAAGGAUAUUACUAGCUUCGGCUAGUGAGAAGGUAUCACAUGAGGAUCACCCAUGUGUUCCAAUAA [Ex6/7-B1] (Eterna round: R97, puzzle: Exclusion 6) | – | – | – | 270 nM | 119 nM | – |
| UACAUGAGGAUCACCCAUGUUUUGUCGUGUAUGGUAUUUAUCUAGGAUAUCAAUUUAUUUAUUUAUGAGAAGGAGAAUAUUAAU [JMF's solution 5] (Eterna round: R96, puzzle: Exclusion NG 3) | – | – | – | 36.3 nM | 41.2 nM | 28.1 nM |
| UAAUUAAUUAAUUAAUAAUACAUGAGGAUCACCCAUGUAGAUCCUACAUACAAUUUAAGUAGCUCGUCUUAUAAUUA [Stov1/1-A1] (Eterna round: R97, puzzle: Sensor, turn-off variant 1) | – | – | – | 206 nM | 264 nM | – |
| UUUUAGUCAGGAUAUACAUGAGGAUCACCCAUGUAAACUUUUAGUUUAAUUUGAAUGUGUAGAAGGGACAUUUU [Ex3 #44] (Eterna round: R97, puzzle: Exclusion 3) | – | – | – | 34.3 nM | 25.4 nM | – |
| GAGAUACAUGAGGAUCACCCAUGUGAGGAUAUGAGUCAGUCACGGUGACGUGGCUGACUCAGAAGGCACAAAGG [Mat - Exclusion 1 - JL Mod - D35] (Eterna round: R97, puzzle: Exclusion 1) | – | – | – | 88.9 nM | 150 nM | – |
| UAAUGUAUAUAGGAUAUCUAGCUGGAAACAGCUAGAGAAGGAUGUACAUGAGGAUCACCCAUGUAAAUCUCAAU [Ex6/12-B1] (Eterna round: R97, puzzle: Exclusion 6) | – | – | – | 27.4 nM | 19.1 nM | – |
| UAUUAGCAAGCGAGAUCCCACAUGAGGAUCACCCAUGUAGCAUCCAGAAUUACUGGGUGCAAAAGCUCGUCUUAUUA [Winner reversed engineered 4] (Eterna round: R97, puzzle: Sensor, turn-off variant 1) | – | – | – | 25.4 nM | 26.1 nM | – |
| UGUUGUUACGCAGGAUAUUGUCAACAGGCAAUAGGAUAUCCGAAAGGAGAAGGAUCGCCAACAGGCGAGAAGGGCGGGUUAACA [pwkr exNG2 2xF7 2xFMN.1] (Eterna round: R96, puzzle: Exclusion NG 2) | – | – | – | 133 nM | 2630 nM | 1580 nM |
| GAUAGAGAGCAGGAUAUCUUGGGUAAGUAUCGUAGAGAAGGGCUCACAUGAGGAUCACCCAUGUGGUCCAAGAU [JL Dibiri mod 01] (puzzle: Exclusion 6) | – | 14.4 nM | – | – | – | – |
| CAUGGAUGUGAGCCGCAUUACAUGAGGAUCACCCAUGUCAACAAGCUUUUUGCUUGUCUUACGCGGCGGCACCAGAA [Getelexe] (puzzle: Sensor v3, turn-off variant 1) | 14.3 nM | 8.03 nM | 10.8 nM | – | – | – |
| GCAAGAUUCUGAGGAUAUGCGCUACAUCCCACAGCAGAAGGCGGAAAUUGACUGACAUGAGGAUCACCCAUGUGAUCCGCUUUC [Eternabot solution 33] (Eterna round: R96, puzzle: Exclusion NG 1) | – | – | – | 32.7 nM | 17.7 nM | 21.2 nM |
| GAGGCUAAAGGAUAUACAUGAGGAUCACCCAUGUGGAGGAAGGUUAGAUGAGGAGAAGGUAGAAGGUUAGGCGA [JR_Exclu3_Sub093] (puzzle: Exclusion 3) | 29.7 nM | 23.6 nM | 28.6 nM | – | – | – |
